The record followed here is US20260242478A1 (published 2026).

Where no end group is shown, it is not given here.

For assay [1], the target named is T1, PSMA Fab (biotinylated (site not given)).
T1 construct: Biotinylated PSMA Fab captured on neutravidin plates in the phage ELISA; also called Anti-PSMA Fab; 006 PSMA Fab
As to the kind of experiment: phage ELISA on captured biotinylated PSMA Fab, wells pre-incubated with PSMA antigen (competitor: PSMA); anti-M13 HRP detection. On the technique in general: ELISA stands for enzyme-linked immunosorbent assay.

Assay [2] addresses T1, PSMA Fab. The assay can be described thus: phage ELISA: clonal phage supernatant on biotinylated PSMA Fab captured on neutravidin plate, blocking buffer alone; anti-M13 HRP detection.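 Note: crude clonal phage supernatants added to wells preincubated with blocking buffer, incubated briefly, bound phage detected with a horseradish-conjugated anti-M13 antibody.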
Procedure: (§1) Clonal phage were harvested as crude supernatants and screened via standard ELISAs. […] Prior to the addition of clonal phage. wells were incubated with blocking buffer and PSMA antigen or blocking buffer alone. Without washing or aspirating, clonal phage supernatants were then added to the wells and incubated for a short time. Wells were then washed followed by detection of bound phage using a horse radish conjugated anti-M13 antibody.
Assay [3] has as its target T2, PSMA Fab (006 PSMA Fab).
T2 construct: In the phage ELISA the PSMA Fab was biotinylated and captured on neutravidin coated plates; also called Anti-PSMA Fab; anti-PSMA Fab
The assay can be described thus: clonal phage ELISA on biotinylated PSMA Fab captured on neutravidin plates, anti-M13-HRP detection.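 Note: crude clonal phage supernatants added to wells preincubated with PSMA antigen or with blocking buffer only (no wash between), briefly incubated, then washed before detecting bound phage.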
Procedure: as §1

Assay [4] deals with T2, PSMA Fab (006 PSMA Fab). The assay can be described thus: clonal phage ELISA on captured PSMA Fab, wells pre-incubated with PSMA antigen as competitor (column head not shown, assumed).
Assay [5] deals with T3, PSMA Fab.
T3 construct: also called Anti-PSMA Fab; 006 PSMA Fab
The assay can be described thus: phage ELISA, biotinylated PSMA Fab on neutravidin plate, bound phage detected with anti-M13-HRP.
Procedure: as §1

For assay [6], the target named is T3, PSMA Fab. As to the kind of experiment: phage ELISA, biotinylated PSMA Fab on neutravidin plate pre-incubated with PSMA antigen as competitor, anti-M13-HRP.
Procedure: as §1

B1: Phage-2468 (peptide, not shown: large carriers)
peptide: FEKWCIPAWMCEQV
modifications: cysteine pairing not given here; also: displayed as fusion to phage pIII
notes: Clonal phage of the Peptide-180 optimisation library, tested as crude supernatant
B1: the “Phage binding ELISA signal, Anti-PSMA Fab in presence of PSMA” value (from here on “Phage binding ELISA signal … of PSMA”) with PSMA Fab [1] was determined as 0.0596. Further, the “Phage binding ELISA signal, Anti-PSMA Fab” value with PSMA Fab [2] came out at 1.24.

Consider MHHWCIPAWMCSTE [Phage-2410], for which the “Phage binding ELISA signal, Anti-PSMA Fab” value in the assay with PSMA Fab (006 PSMA Fab) [3] amounted to 1.35. For the same molecule, the “Phage binding ELISA signal, Anti-PSMA Fab with PSMA antigen” value with PSMA Fab (006 PSMA Fab) [4] worked out at 0.0812.

B2: Phage-2403 (peptide)
peptide: IEKWCIPQWMCGNP
modifications: cysteine pairing not given here; also: fused to phage pIII (clonal phage display)
With B2, the “Phage binding ELISA signal, Anti-PSMA Fab” value with PSMA Fab [5] is 1.36. Also, in the assay with PSMA Fab [6], the “Phage binding ELISA signal, Anti-PSMA Fab with PSMA antigen” value came to 0.0574.

B3: Phage-2412 (peptide)
peptide: GEKWCIPDWMCAAA
modifications: cysteine pairing not given here; also: displayed on bacteriophage by fusion to pIII
In the case of B3, the “Phage binding ELISA signal, Anti-PSMA Fab” value with PSMA Fab (006 PSMA Fab) [3] turned out to be 1.34. Further, in the assay with PSMA Fab (006 PSMA Fab) [4], the “Phage binding ELISA signal, Anti-PSMA Fab with PSMA antigen” value turned out to be 0.0769.

B4: Phage-2415 (peptide)
peptide: LWKWCTPPWMCEVS
modifications: cysteine pairing not given here; also: displayed on bacteriophage by fusion to pIII
For B4, in the assay with PSMA Fab (006 PSMA Fab) [3], the “Phage binding ELISA signal, Anti-PSMA Fab” value was 1.34. In the assay with PSMA Fab (006 PSMA Fab) [4], the “Phage binding ELISA signal, Anti-PSMA Fab with PSMA antigen” value is 0.0864.

B5: Phage-2467 (peptide, not shown: large carriers)
peptide: GDKWCIPDWMCVQS
modifications: cysteine pairing not given here; also: displayed as fusion to phage pIII
notes: as for B1
As to B5, the “Phage binding ELISA signal … of PSMA” value with PSMA Fab [1] came to 0.0692. Besides, the “Phage binding ELISA signal, Anti-PSMA Fab” value in the assay with PSMA Fab [2] came out at 1.24.

B6: Phage-2469 (peptide, not shown: large carriers)
peptide: VSKWCTPAWMCSAM
modifications: cysteine pairing not given here; also: displayed as fusion to phage pIII
notes: as for B1
Take B6: the “Phage binding ELISA signal … of PSMA” value with PSMA Fab [1] stood at 0.099. Also, in the assay with PSMA Fab [2], the “Phage binding ELISA signal, Anti-PSMA Fab” value amounted to 1.24.

B7: Phage-2475 (peptide, not shown: large carriers)
peptide: EHKWCTPLWMCEGL
modifications: cysteine pairing not given here; also: fused to phage pIII (clonal phage display)
notes: as for B1
B7: in the assay with PSMA Fab [1], the “Phage binding ELISA signal … of PSMA” value is 0.09. For the same molecule, the “Phage binding ELISA signal, Anti-PSMA Fab” value with PSMA Fab [2] amounted to 1.23.

Take TVKWCVPPWMCSVP [Phage-2407]: in the assay with PSMA Fab (006 PSMA Fab) [3], the “Phage binding ELISA signal, Anti-PSMA Fab” value was found to be 1.36. The “Phage binding ELISA signal, Anti-PSMA Fab with PSMA antigen” value with PSMA Fab (006 PSMA Fab) [4] amounted to 0.0764.

B8: Phage-2414 (peptide)
peptide: VEKWCTPPWMCRFD
modifications: cysteine pairing not given here; also: displayed on bacteriophage by fusion to pIII
As for B8, the “Phage binding ELISA signal, Anti-PSMA Fab” value with PSMA Fab (006 PSMA Fab) [3] was 1.34. Besides, in the assay with PSMA Fab (006 PSMA Fab) [4], the “Phage binding ELISA signal, Anti-PSMA Fab with PSMA antigen” value amounted to 0.074.

B9: Phage-2416 (peptide)
peptide: SERWCIPQWMCTAP
modifications: cysteine pairing not given here; also: displayed on bacteriophage by fusion to pIII
B9: the “Phage binding ELISA signal, Anti-PSMA Fab” value in the assay with PSMA Fab (006 PSMA Fab) [3] is 1.34. Besides, the “Phage binding ELISA signal, Anti-PSMA Fab with PSMA antigen” value with PSMA Fab (006 PSMA Fab) [4] came out at 0.0763.

As for QAKWCIPQWMCESY [Phage-2411], the “Phage binding ELISA signal, Anti-PSMA Fab” value in the assay with PSMA Fab (006 PSMA Fab) [3] turned out to be 1.35. For the same molecule, the “Phage binding ELISA signal, Anti-PSMA Fab with PSMA antigen” value in the assay with PSMA Fab (006 PSMA Fab) [4] was found to be 0.0648.

As for EIKWCIPSWMCNTL (cysteine pairing not given here; also: displayed as fusion to phage pIII) [Phage-2420], the “Phage binding ELISA signal, Anti-PSMA Fab” value in the assay with PSMA Fab (006 PSMA Fab) [3] was 1.33. The “Phage binding ELISA signal, Anti-PSMA Fab with PSMA antigen” value with PSMA Fab (006 PSMA Fab) [4] turned out to be 0.0772.

B10: Phage-2476 (peptide, not shown: large carriers)
peptide: YHNWCVPQWMCVGL
modifications: cysteine pairing not given here; also: displayed on phage as fusion to pIII, pIII and linker sequence not given here
notes: as for B1
For the molecule B10, the “Phage binding ELISA signal … of PSMA” value with PSMA Fab [1] came to 0.127. The “Phage binding ELISA signal, Anti-PSMA Fab” value with PSMA Fab [2] was determined as 1.23.

B11: Phage-2413 (peptide)
peptide: LDMRCTPAWMCEGF
modifications: cysteine pairing not given here; also: displayed on bacteriophage by fusion to pIII
On to B11, for which the “Phage binding ELISA signal, Anti-PSMA Fab” value with PSMA Fab (006 PSMA Fab) [3] stood at 1.34. Further, in the assay with PSMA Fab (006 PSMA Fab) [4], the “Phage binding ELISA signal, Anti-PSMA Fab with PSMA antigen” value came out at 0.0768.

B12: Phage-2473 (peptide, not shown: large carriers)
peptide: PEHWCIPPWMCVVH
modifications: cysteine pairing not given here; also: displayed on phage as fusion to pIII, pIII and linker sequence not given here
notes: as for B1
Regarding B12, the “Phage binding ELISA signal … of PSMA” value with PSMA Fab [1] worked out at 0.513. Besides, in the assay with PSMA Fab [2], the “Phage binding ELISA signal, Anti-PSMA Fab” value turned out to be 1.24.

B13: Phage-2470 (peptide, not shown: large carriers)
peptide: VDKLCRPAWMCVAS
modifications: cysteine pairing not given here; also: displayed as fusion to phage pIII
notes: as for B1
For the molecule B13, in the assay with PSMA Fab [1], the “Phage binding ELISA signal … of PSMA” value came to 0.0775. Further, the “Phage binding ELISA signal, Anti-PSMA Fab” value in the assay with PSMA Fab [2] was determined as 1.24.

B14: Phage-2472 (peptide, not shown: large carriers)
peptide: FDKWCIPPWMCVGP
modifications: cysteine pairing not given here; also: displayed on phage as fusion to pIII, pIII and linker sequence not given here
notes: as for B1
With B14, the “Phage binding ELISA signal … of PSMA” value with PSMA Fab [1] stood at 0.0689. The “Phage binding ELISA signal, Anti-PSMA Fab” value in the assay with PSMA Fab [2] came to 1.24.

Take YIKWCTPPWMCELM [Phage-2409]: in the assay with PSMA Fab (006 PSMA Fab) [3], the “Phage binding ELISA signal, Anti-PSMA Fab” value was determined as 1.35. The “Phage binding ELISA signal, Anti-PSMA Fab with PSMA antigen” value in the assay with PSMA Fab (006 PSMA Fab) [4] was 0.15.

B15: Phage-2471 (peptide, not shown: large carriers)
peptide: MEKWCIPDWMCLGN
modifications: cysteine pairing not given here; also: displayed as fusion to phage pIII
notes: as for B1
On to B15, for which, in the assay with PSMA Fab [1], the “Phage binding ELISA signal … of PSMA” value stood at 0.0809. In the assay with PSMA Fab [2], the “Phage binding ELISA signal, Anti-PSMA Fab” value came to 1.24.

B16: Phage-2406 (peptide)
peptide: PDKWCIPQWMCSQM
modifications: cysteine pairing not given here; also: fused to phage pIII (clonal phage display)
For the molecule B16, in the assay with PSMA Fab (006 PSMA Fab) [3], the “Phage binding ELISA signal, Anti-PSMA Fab” value came out at 1.36. In the assay with PSMA Fab (006 PSMA Fab) [4], the “Phage binding ELISA signal, Anti-PSMA Fab with PSMA antigen” value worked out at 0.0822.

B17: Phage-2474 (peptide, not shown: large carriers)
peptide: DFHMCTPRWMCEGM
modifications: cysteine pairing not given here; also: displayed on phage as fusion to pIII, pIII and linker sequence not given here
notes: as for B1
As to B17, the “Phage binding ELISA signal … of PSMA” value in the assay with PSMA Fab [1] is 0.0622. Further, the “Phage binding ELISA signal, Anti-PSMA Fab” value in the assay with PSMA Fab [2] is 1.24.

With VDHWCTPEWMCVMM [Phage-2408], the “Phage binding ELISA signal, Anti-PSMA Fab” value in the assay with PSMA Fab (006 PSMA Fab) [3] came to 1.36. Further, the “Phage binding ELISA signal, Anti-PSMA Fab with PSMA antigen” value in the assay with PSMA Fab (006 PSMA Fab) [4] came to 0.0963.

B18: Phage-2418 (peptide)
peptide: FSKLCIPAWMCSEE
modifications: cysteine pairing not given here; also: displayed on bacteriophage by fusion to pIII
With B18, in the assay with PSMA Fab (006 PSMA Fab) [3], the “Phage binding ELISA signal, Anti-PSMA Fab” value is 1.34. In addition, the “Phage binding ELISA signal, Anti-PSMA Fab with PSMA antigen” value in the assay with PSMA Fab (006 PSMA Fab) [4] was found to be 0.0956.

In the case of MEKWCIPSWMCVGM [Phage-2405], in the assay with PSMA Fab (006 PSMA Fab) [3], the “Phage binding ELISA signal, Anti-PSMA Fab” value amounted to 1.36. In the assay with PSMA Fab (006 PSMA Fab) [4], the “Phage binding ELISA signal, Anti-PSMA Fab with PSMA antigen” value amounted to 0.0682.

VAKWCIPSWMCETV (cysteine pairing not given here; also: displayed as fusion to phage pIII) [Phage-2419]: in the assay with PSMA Fab (006 PSMA Fab) [3], the “Phage binding ELISA signal, Anti-PSMA Fab” value was 1.33. The “Phage binding ELISA signal, Anti-PSMA Fab with PSMA antigen” value with PSMA Fab (006 PSMA Fab) [4] stood at 0.0735.

B19: Phage-2466 (peptide, not shown: large carriers)
peptide: VVKWCTPSWMCTGF
modifications: cysteine pairing not given here; also: displayed as fusion to phage pIII
notes: as for B1
In the case of B19, in the assay with PSMA Fab [1], the “Phage binding ELISA signal … of PSMA” value came out at 0.0837. Also, in the assay with PSMA Fab [2], the “Phage binding ELISA signal, Anti-PSMA Fab” value worked out at 1.24.

Take HTTWCTPAWMCQGF [Phage-2404]: the “Phage binding ELISA signal, Anti-PSMA Fab” value with PSMA Fab [5] was 1.36. Moreover, the “Phage binding ELISA signal, Anti-PSMA Fab with PSMA antigen” value with PSMA Fab [6] turned out to be 0.0895.

B20: Phage-2417 (peptide)
peptide: FDPWCIPLWMCEGM
modifications: cysteine pairing not given here; also: displayed on bacteriophage by fusion to pIII
Regarding B20, the “Phage binding ELISA signal, Anti-PSMA Fab” value with PSMA Fab (006 PSMA Fab) [3] turned out to be 1.34. In the assay with PSMA Fab (006 PSMA Fab) [4], the “Phage binding ELISA signal, Anti-PSMA Fab with PSMA antigen” value was determined as 0.0667.
